Experimental data published in article PMC5014551.

B1: Bol3-Strep [S. cerevisiae] / Lip5 [S. cerevisiae (endogenous in yeast mitochondria)] (parent)
chain 1: MKLPQTMLRSISVKHVRWPRILTGSKLWYSTQMAMTPEEKMITDKLQQELEPEVCKVQDVSGGCGSMFAINITSKKFNGLSLIKQHQLVNRILRDDISRWHGLQLTTKKSTGKGPASS
chain 2: SSTIRCGTSATRPIRSNALNTDSDNASVRVPVGNSTEVENATSQLTGTSGKRRKGNRKRITEFKDALNLGPSFADFVSGKASKMILDPLEKARQNTEEAKKLPRWLKVPIPKGTNYHKLKGDVKELGLSTVCEEARCPNIGECWGGKDKSKATATIMLLGDTCTRGCRFCSVKTNRTPSKPDPMEPENTAEAIKRWGLGYVVLTTVDRDDLVDGGANHLAETVRKIKQKAPNTLVETLSGDFRGDLKMVDIMAQCGLDVYAHNLETVESLTPHVRDRRATYRQSLSVLERAKATVPSLITKTSIMLGLGETDEQITQTLKDLRNIQCDVVTFGQYMRPTKRHMKVVEYVKPEKFDYWKERALEMGFLYCASGPLVRSSYKAGEAFIENVLKKRNMK
B2: Bol3-Strep [S. cerevisiae] / Aco1 [S. cerevisiae (endogenous in yeast mitochondria)] (parent)
chain 1: B1 chain 1
chain 2: ATVSNLTRDSKVNQNLLEDHSFINYKQNVETLDIVRKRLNRPFTYAEKILYGHLDDPHGQDIQRGVSYLKLRPDRVACQDATAQMAILQFMSAGLPQVAKPVTVHCDHLIQAQVGGEKDLKRAIDLNKEVYDFLASATAKYNMGFWKPGSGIIHQIVLENYAFPGALIIGTDSHTPNAGGLGQLAIGVGGADAVDVMAGRPWELKAPKILGVKLTGKMNGWTSPKDIILKLAGITTVKGGTGKIVEYFGDGVDTFSATGMGTICNMGAEIGATTSVFPFNKSMIEYLEATGRGKIADFAKLYHKDLLSADKDAEYDEVVEIDLNTLEPYINGPFTPDLATPVSKMKEVAVANNWPLDVRVGLIGSCTNSSYEDMSRSASIVKDAAAHGLKSKTIFTVTPGSEQIRATIERDGQLETFKEFGGIVLANACGPCIGQWDRRDIKKGDKNTIVSSYNRNFTSRNDGNPQTHAFVASPELVTAFAIAGDLRFNPLTDKLKDKDGNEFMLKPPHGDGLPQRGYDAGENTYQAPPADRSTVEVKVSPTSDRLQLLKPFKPWDGKDAKDMPILIKAVGKTTTDHISMAGPWLKYRGHLENISNNYMIGAINAENKKANCVKNVYTGEYKGVPDTARDYRDQGIKWVVIGDENFGEGSSREHAALEPRFLGGFAIITKSFARIHETNLKKQGLLPLNFKNPADYDKINPDDRIDILGLAELAPGKPVTMRVHPKNGKPWDAVLTHTFNDEQIEWFKYGSALNKIKADEKK
B3: Bol3-Strep [S. cerevisiae] / Lys4 [S. cerevisiae (endogenous in yeast mitochondria)] (parent)
chain 1: B1 chain 1
chain 2: LKGQNLTEKIVQSYAVNLPEGKVVHSGDYVSIKPAHCMSHDNSWPVALKFMGLGATKIKNPSQIVTTLDHDIQNKSEKNLTKYKNIENFAKKHHIDHYPAGRGIGHQIMIEEGYAFPLNMTVASDSHSNTYGGLGSLGTPIVRTDAAAIWATGQTWWQIPPVAQVELKGQLPQGVSGKDIIVALCGLFNNDQVLNHAIEFTGDSLNALPIDHRLTIANMTTEWGALSGLFPVDKTLIDWYKNRLQKLGTNNHPRINPKTIRALEEKAKIPKADKDAHYAKKLIIDLATLTHYVSGPNSVKVSNTVQDLSQQDIKINKAYLVSCTNSRLSDLQSAADVVCPTGDLNKVNKVAPGVEFYVAAASSEIEADARKSGAWEKLLKAGCIPLPSGCGPCIGLGAGLLEPGEVGISATNRNFKGRMGSKDALAYLASPAVVAASAVLGKISSPAEVLSTSEIPFSGVKTEIIENPVVEEEVNAQTEAPKQSVEILEGFPREFSGELVLCDADNINTDGIYPGKYTYQDDVPKEKMAQVCMENYDAEFRTKVHPGDIVVSGFNFGTGSSREQAATALLAKGINLVVSGSFGNIFSRNSINNALLTLEIPALIKKLREKYQGAPKELTRRTGWFLKWDVADAKVVVTEGSLDGPVILEQKVGELGKNLQEIIVKGGLEGWVKSQL
B4: Bol1-Strep [S. cerevisiae] / Grx5 [S. cerevisiae (endogenous in yeast mitochondria)] (parent)
chain 1: MFKRAMSTDGPVARTILKRLECGFPDYKNFAFGLYNDSHKHKGHAGVQGNVSAETHFRIEMVSKKFEGLKLPQRHRMVYSLLQDEMAQANGIHALQLSLKTPQEYESKAK
chain 2: LSTEIRKAIEDAIESAPVVLFMKGTPEFPKCGFSRATIGLLGNQGVDPAKFAAYNVLEDPELREGIKEFSEWPTIPQLYVNKEFIGGCDVITSMARSGELADLLEEAQALVPEEEEETKDR
B5: Bol3-Strep [S. cerevisiae] / Aco2 [S. cerevisiae (endogenous in yeast mitochondria)] (parent)
chain 1: B1 chain 1
chain 2: ATHANMFPSVSKNFQTKVPPYAKLLTNLDKIKQITNNAPLTLAEKILYSHLCDPEESITSSDLSTIRGNKYLKLNPDRVAMQDASAQMALLQFMTTGLNQTSVPASIHCDHLIVGKDGETKDLPSSIATNQEVFDFLESCAKRYGIQFWGPGSGIIHQIVLENFSAPGLMMLGTDSHTPNAGGLGAIAIGVGGADAVDALTGTPWELKAPKILGVKLTGKLNGWSTPKDVITKLAGLLTVRGGTGYIVEYFGEGVSTLSCTGMATICNMGAEIGATTSTFPYQEAHKRYLQATNRAEVAEAADVALNKFNFLRADKDAQYDKVIEIDLSAIEPHVNGPFTPDLSTPISQYAEKSLKENWPQKVSAGLIGSCTNSSYQDMSRVVDLVKQASKAGLKPRIPFFVTPGSEQIRATLERDGIIDIFQENGAKVLANACGPCIGQWNREDVSKTSKETNTIFTSFNRNFRARNDGNRNTMNFLTSPEIVTAMSYSGDAQFNPLTDSIKLPNGKDFKFQPPKGDELPKRGFEHGRDKFYPEMDPKPDSNVEIKVDPNSDRLQLLEPFKPWNGKELKTNVLLKVEGKCTTDHISAAGVWLKYKGHLENISYNTLIGAQNKETGEVNKAYDLDGTEYDIPGLMMKWKSDGRPWTVIAEHNYGEGSAREHAALSPRFLGGEILLVKSFARIHETNLKKQGVLPLTFANESDYDKISSGDVLETLNLVDMIAKDGNNGGEIDVKITKPNGESFTIKAKHTMSKDQIDFFKAGSAINYIGNIRRNE
B6: Bol3-Strep [S. cerevisiae] / Sdh2 [S. cerevisiae (endogenous in yeast mitochondria)] (parent)
chain 1: B1 chain 1
chain 2: TATTAAATHTPRLKTFKVYRWNPDEPSAKPHLQSYQVDLNDCGPMVLDALLKIKDEQDSTLTFRRSCREGICGSCAMNIGGRNTLACICKIDQNESKQLKIYPLPHMFIVKDLVPDLTNFYQQYKSIQPYLQRSSFPKDGTEVLQSIEDRKKLDGLYECILCACCSTSCPSYWWNQEQYLGPAVLMQAYRWLIDSRDQATKTRKAMLNNSMSLYRCHTIMNCTRTCPKGLNPGLAIAEIKKSLAFA
B7: Bol3-Strep [S. cerevisiae] / Bio2 [S. cerevisiae (endogenous in yeast mitochondria)] (parent)
chain 1: B1 chain 1
chain 2: TKYATNAAVKSTTASSEASTLGALQYALSLDEPSHSWTKSQLKEIYHTPLLELTHAAQLQHRKWHDPTKVQLCTLMNIKSGGCSEDCKYCAQSSRNDTGLKAEKMVKVDEVIKEAEEAKRNGSTRFCLGAAWRDMKGRKSAMKRIQEMVTKVNDMGLETCVTLGMVDQDQAKQLKDAGLTAYNHNIDTSREHYSKVITTRTYDDRLQTIKNVQESGIKACTGGILGLGESEDDHIGFIYTLSNMSPHPESLPINRLVAIKGTPMAEELADPKSKKLQFDEILRTIATARIVMPKAIIRLAAGRYTMKETEQFVCFMAGCNSIFTGKKMLTTMCNGWDEDKAMLAKWGLQPMEAFKYDRS
B8: Bol3-Strep [S. cerevisiae] / Grx5 [S. cerevisiae (endogenous in yeast mitochondria)] (parent)
chain 1: B1 chain 1
chain 2: B4 chain 2

Variants of: B1
Experiment: Strep-tag affinity purification with MS proteomics (spectral counts)
Conditions: parent: 10, read off a plot

chain 1 H101C was tested. Which screen value did it give?
The screen value was 10%.

Variants of: B2
Experiment: as above
Conditions: parent: 10, read off a plot

chain 1 H101C was tested. Which screen value did it give?
Its screen value is 22%.

Variants of: B3
Experiment: as above
Conditions: parent: 10, read off a plot

chain 1 H101C was tested. Which screen value did it give?
Its screen value is 30%.

Variants of: B4
Experiment: as above
Conditions: parent: 47, read off a plot

For chain 1 H93C, which screen value is on record?
Its screen value is 5.9%.

Variants of: B5
Experiment: as above
Conditions: parent: 0, read off a plot

For chain 1 H101C, which screen value is on record?
Its screen value is 11%.

Variants of: B6
Experiment: as above
Conditions: parent: 32, read off a plot

chain 1 H101C was tested. Which screen value did it give?
Its screen value is 24%.

Variants of: B7
Experiment: as above
Conditions: parent: 8, read off a plot

Which screen value does the source give for chain 1 H101C here?
Its screen value is 31%.

Variants of: B8
Experiment: as above
Conditions: parent: 21, read off a plot

chain 1 H101C was tested. Which screen value did it give?
Its screen value is 18%.
